In publication PMC12775996 (2025):

Key:
[1] = target: T1, adenovirus type 11 vector particles (human adenovirus type 11); experiment: SPR; hydrophobic (slow) component of one-to-two model
[2] = target: T2, adenovirus type 13 vector particles (human adenovirus type 13); experiment: as above
[3] = target: T1, adenovirus type 11 vector particles; experiment: SPR; electrostatic (fast) component of one-to-two model
[4] = target: T2, adenovirus type 13 vector particles; experiment: as above
[5] = target: T3, adenovirus type 5 vector particles (wild-type capsid) (human adenovirus type 5); experiment: SPR; hydrophobic (slow) component of one-to-two model
[6] = target: T3, adenovirus type 5 vector particles …; experiment: as above; remark: listed apart in the source
[7] = target: T3, adenovirus type 5 vector particles …; experiment: SPR; electrostatic (fast) component of one-to-two model

B1: human platelet factor 4 (natural protein)
chain: EAEEDGDLQCLCVKTTSQVRPRHITSLEVIKAGPHCPTAQLIATLKNGRKICLDLQAPLYKKIIKKLLES
- Kd [1]: 13.4 nM
- koff [1]: 0.000482 s⁻¹
- Kd [2]: 12.9 nM
- koff [2]: 0.000363 s⁻¹
- Kd [3]: 742 nM
- koff [3]: 0.00879 s⁻¹
- Kd [4]: 774 nM
- koff [4]: 0.00761 s⁻¹

B2: human platelet factor 4 (natural protein)
chain: EAEEDGDLQCLCVKTTSQVRPRHITSLEVIKAGPHCPTAQLIATLKNGRKICLDLQAPLYKKIIKKLLES
modifications: wild-type capsid; copies by convention for the Ad5 virion; hexon is the PF4-binding protein; internal proteins IIIa, VI and VIII left out; Y477 is the fiber residue of the paper (AAQ19310.1)
- koff [5]: 0.00083 s⁻¹
- Kd [6]: 24.4 nM
- koff [7]: 0.0124 s⁻¹
